According to patent US6982321:

Tests used:
[1] = target: hen eggwhite lysozyme (hen) (UniProt P00698); assay: fluorescence titration with lysozyme, 50 nM antibody, 25°
[2] = target: hen eggwhite lysozyme (hen) (UniProt P00698); assay: fluorescence quenching titration with hen eggwhite lysozyme
[3] = target: partially purified Campath-1 antigen (obtained from a glycolipid extract from human spleen) (human) (UniProt P31358); assay: direct binding assay on coated partially purified Campath-1 antigen, biotin anti-rat IgG2b detection; concentration at 50% maximal binding
[4] = target: Campath-1 antigen on human lymphocytes (human) (UniProt P31358); assay: cell-based or functional assay
[5] = target: partially purified Campath-1 antigen (obtained from a glycolipid extract from human spleen) (human) (UniProt P31358); assay: direct binding assay on coated partially purified Campath-1 antigen; concentration at 50% binding

Chain of hen eggwhite lysozyme (hen) (P00698 19-147 limits assumed): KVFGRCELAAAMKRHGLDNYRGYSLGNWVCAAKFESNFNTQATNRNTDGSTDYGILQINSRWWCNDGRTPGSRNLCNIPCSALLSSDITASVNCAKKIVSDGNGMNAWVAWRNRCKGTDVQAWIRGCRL
Chain of RaVHCAMP-RaIgG2B (P20761 whole entry): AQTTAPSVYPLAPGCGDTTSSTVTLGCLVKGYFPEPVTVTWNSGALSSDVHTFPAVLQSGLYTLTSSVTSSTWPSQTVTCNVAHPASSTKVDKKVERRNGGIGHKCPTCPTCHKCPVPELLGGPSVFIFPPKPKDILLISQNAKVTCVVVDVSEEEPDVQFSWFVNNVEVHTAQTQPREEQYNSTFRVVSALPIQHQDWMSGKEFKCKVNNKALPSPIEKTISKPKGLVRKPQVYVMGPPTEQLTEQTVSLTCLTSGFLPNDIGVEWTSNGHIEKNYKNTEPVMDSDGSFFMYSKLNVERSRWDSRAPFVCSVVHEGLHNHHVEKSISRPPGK
Chain of HuVHCAMP(Ser27 to Phe, Ser30 to Thr)-RaIgG2B (P20761 whole entry): as above
Chain of HuVHCAMP(Ser27 to Phe)-RaIgG2B (P20761 whole entry): as above
Chain of HuVHCAMP-RaIgG2B (P20761 whole entry): as above

Row | Substance | Kd [2] | EC50 [3] | Concentration of antibody in ug/ml at 50% binding or lysis: complement lysis [4] | also measured
1 | D1.3 (H2K2) (antibody) | 0.0144 µM | – | – | equivalence point (binding sites per mole) (binding sites per mole) [1]: 1.8
2 | D1.3 (H2K2) (reassociated) (antibody) | 0.0114 µM | – | – | –
3 | HuVHCAMP(Ser27 to Phe)-RaIgG2B (from UniProt P20761 1-333) (antibody) | – | 1.8 mg/L | 16.3 µg/mL | –
4 | HuVHCAMP(Ser27 to Phe, Ser30 to Thr)-RaIgG2B (from UniProt P20761 1-333) (antibody) | – | 2 mg/L | 17.6 µg/mL | –
5 | HuVHCAMP-RaIgG2B (from UniProt P20761 1-333) (antibody) | – | 27.3 mg/L | – | –
6 | RaVHCAMP-RaIgG2B (from UniProt P20761 1-333) (antibody) | – | 0.7 mg/L | 2.1 µg/mL | EC50 [5]: 1.01 mg/L
7 | recombinant D1.3 (H*2K2) (reassociated) (antibody) | 0.0092 µM | – | – | –
